Data as given in article PMC11491553, “Structural insights into the mechanotransducing mechanism of FtsEX in cell division” (MedComm, 2024).

B1: FtsE(E163Q) (enzyme, E. coli K12)
chain: IRFEHVSKAYLGGRQALQGVTFHMQPGEMAFLTGHSGAGKSTLLKLICGIERPSAGKIWFSGHDITRLKNREVPFLRRQIGMIFQDHHLLMDRTVYDNVAIPLIIAGASGDDIRRRVSAALDKVGLLDKAKNFPIQLSGGEQQRVGIARAVVNKPAVLLADQPTGNLDDALSEGILRLFEEFNRVGVTVLMATHDINLISRRSYRMLTLSDGHLHGGVGHE
notes: gene amplified from genomic DNA; The gene was amplified from genomic DNA and no truncation is mentioned; Removal of the 8×His-SUMO fusion from FtsE is not described; the complex with EnvC was recaptured on nickel; Retains endogenously captured ATP; also called NBD; FtsE of FtsE(E163Q)X; not shown: 8×His, N-terminal, kept
B2: FtsX (natural protein, E. coli K12)
chain: RFRKSVGGSGDGGRNAPKRAKSSPKPVNRKTNVFNEQVRYAFHGALQDLKSKPFATFLTVMVIAISLTLPSVCYMVYKNVNQAATQYYPSPQITVYLQKTLDDDAAAGVVAQLQAEQGVEKVNYLSREDALGEFRNWSGFGGALDMLEENPLPAVAVVIPKLDFQGTESLNTLRDRITQINGIDEVRMDDSWFARLAALTGLVGRVSAMIGVLMVAAVFLVIGNSVRLSIFARRDSINVQKLIGATDGFILRPFLYGGALLGFSGALLSLILSEILVLRLSSAVAEVAQVFGTKFDINGLSFDECLLLLLVCSMIGWVAAWLATVQHLRHFTPE
notes: FtsX, E. coli K12, integral membrane protein of FtsEX (four transmembrane helices, periplasmic loop domain); gene amplified from genomic DNA; The gene was amplified from genomic DNA and no truncation or tag on FtsX is mentioned; also called FtsX of FtsEX; TMDs and PLDs

Molecular target: the molecule itself
Assay: cryo-EM structure; FtsE(E163Q)X with endogenously captured ATP, reconstituted into lipid nanodiscs (MSP1D1, E. coli polar extract, 1:2:200); 2.6 Å

| Protein | stoichiometry N |
| --- | --- |
| B1 | 2 |
| B2 | 2 |
